Assay results published in patent US20200222532A1 (ARGENX, published 2020).

Target: T1, CD70 (human, UniProt P32970 1-193)
T1 sequence (looked up): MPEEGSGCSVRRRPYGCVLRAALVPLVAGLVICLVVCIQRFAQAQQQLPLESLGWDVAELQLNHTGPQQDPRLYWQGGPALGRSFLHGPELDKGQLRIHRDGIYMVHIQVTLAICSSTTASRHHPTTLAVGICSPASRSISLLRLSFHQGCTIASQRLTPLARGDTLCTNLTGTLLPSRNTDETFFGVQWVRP
Test: cell-based or functional assay

B1: ARGX-110 (cusatuzumab) (antibody, V domains shown)
VH: EVQLVESGGGLVQPGGSLRLSCAASGFTFSVYYMNWVRQAPGKGLEWVSDINNEGGTTYYADSVKGRFTISRDNSKNSLYLQMNSLRAEDTAVYYCARDAGYSNHVPIFDSWGQGTLVTVSS
VL: QAVVTQEPSLTVSPGGTVTLTCGLKSGSVTSDNFPTWYQQTPGQAPRLLIYNTNTRHSGVPDRFSGSILGNKAALTITGAQADDEAEYFCALFISNPSVEFGGGTQLTVLG
With B1 as the binder, how does the “IC50 of killing of MOLM-13 AML cells in the presence of CFSE-labelled NK cells (ratio 1:1)” value read?
Its value is 0.68 µg/mL.

What about the “IC50 of killing of MV4-11 AML cells in the presence of CFSE-labelled NK cells (ratio 1:1)” value of the same binder?
Its value is 1.2 µg/mL.

And the “IC50 of killing of NB4 AML cells in the presence of CFSE-labelled NK cells (ratio 1:1)” value?
Its value is 0.3 µg/mL.

What about the “IC50 of killing of NOMO-1 AML cells in the presence of CFSE-labelled NK cells (ratio 1:1)” value of the same binder?
The value was 0.14 µg/mL.
